Assay results: publication PMC13287468, “Newton’s cradle-like allosteric mechanism explains regulatory RsmE RNA binding”

Legend:
[1] = molecular target: T1, RsmE dimer (P64W, C-terminal His6) (UniProt P0DPC3 1-64, P64W); test: ITC; apo RsmE dimer, first site; 30 mM NaCl, 50 mM potassium phosphate pH 7.2; ITC at 298 K (NaCl varied in Supp. Fig. 8), RNA titrated into 10 uM RsmE monomer, sequential two-site model; NMR at 303/313 K with 3% D2O; settings: protein: recombinant; tags: C-terminal 6xHis; chain copies: 2; hairpin
T1 sequence: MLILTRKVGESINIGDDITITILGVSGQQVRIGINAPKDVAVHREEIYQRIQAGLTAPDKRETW

[2] = molecular target: T2, RsmE P64W (Pseudomonas protegens, UniProt P0DPC3, P64W); test: ITC; other site of the dimer holds one hcnA RNA; 50 mM potassium phosphate pH 7.2, 30 mM NaCl, 298 K; 10 uM monomer in the cell; settings: tags: C-His6 (kept); chain copies: 2; hairpin; 2 copies of the RNA per protein dimer, value for the second
T2 sequence: T1 sequence

[3] = molecular target: T2, RsmE P64W; test: ITC; 50 mM potassium phosphate pH 7.2, 30 mM NaCl, 298 K; 10 uM monomer in the cell; settings: tags: C-His6 (kept); chain copies: 2; hairpin; 1 RNA per protein dimer
[4] = molecular target: T1, RsmE dimer (P64W, C-terminal His6); test: NMR; 1:1 semi-holo complex; no minor conformations; 30 mM NaCl, 50 mM potassium phosphate pH 7.2; ITC at 298 K (NaCl varied in Supp. Fig. 8), RNA titrated into 10 uM RsmE monomer, sequential two-site model; NMR at 303/313 K with 3% D2O; settings: protein: recombinant; tags: C-terminal 6xHis; chain copies: 2; hairpin, 4 bp stem
[5] = molecular target: T1, RsmE dimer (P64W, C-terminal His6); test: ITC; first site (Kd1); 30 mM NaCl; text: likely upper bound, true value may be <1 nM; 30 mM NaCl, 50 mM potassium phosphate pH 7.2; ITC at 298 K (NaCl varied in Supp. Fig. 8), RNA titrated into 10 uM RsmE monomer, sequential two-site model; NMR at 303/313 K with 3% D2O; settings: protein: recombinant; tags: C-terminal 6xHis; chain copies: 2; hairpin, hexaloop
[6] = molecular target: T2, RsmE P64W; test: ITC; other site of the dimer holds one SL2 RNA; 50 mM potassium phosphate pH 7.2, 30 mM NaCl, 298 K; 10 uM monomer in the cell; settings: tags: C-His6 (kept), chain copies: 2
[7] = molecular target: T2, RsmE P64W; test: ITC; other site of the dimer holds one 4bpSL2 RNA; 50 mM potassium phosphate pH 7.2, 30 mM NaCl, 298 K; 10 uM monomer in the cell; settings: tags: C-His6 (kept); chain copies: 2; hairpin; 2 copies of the RNA per protein dimer, value for the second
[8] = molecular target: T2, RsmE P64W; test: ITC; 50 mM potassium phosphate pH 7.2, 100 mM NaCl, 298 K; 10 uM monomer in the cell; settings: tags: C-His6 (kept); chain copies: 2; hairpin; 1 RNA per protein dimer
[9] = molecular target: T2, RsmE P64W; test: ITC; 50 mM potassium phosphate pH 7.2, 10 mM NaCl, 298 K; 10 uM monomer in the cell; settings: tags: C-His6 (kept); chain copies: 2; hairpin; 1 RNA per protein dimer
[10] = molecular target: T2, RsmE P64W; test: ITC; other site of the dimer holds one SL2 RNA; 50 mM potassium phosphate pH 7.2, 300 mM NaCl, 298 K; 10 uM monomer in the cell; settings: tags: C-His6 (kept); chain copies: 2; hairpin; 2 copies of the RNA per protein dimer, value for the second
[11] = molecular target: T2, RsmE P64W; test: ITC; other site of the dimer holds one SL2 RNA; 50 mM potassium phosphate pH 7.2, 10 mM NaCl, 298 K; 10 uM monomer in the cell; settings: tags: C-His6 (kept); chain copies: 2; hairpin; 2 copies of the RNA per protein dimer, value for the second
[12] = molecular target: T2, RsmE P64W; test: ITC; other site of the dimer holds one SL2 RNA; 50 mM potassium phosphate pH 7.2, 100 mM NaCl, 298 K; 10 uM monomer in the cell; settings: tags: C-His6 (kept); chain copies: 2; hairpin; 2 copies of the RNA per protein dimer, value for the second
[13] = molecular target: T2, RsmE P64W; test: ITC; 50 mM potassium phosphate pH 7.2, 300 mM NaCl, 298 K; 10 uM monomer in the cell; settings: tags: C-His6 (kept); chain copies: 2; hairpin; 1 RNA per protein dimer

Binder: GGGCUUCACGGAUGAAGCCC (structured_RNA) [hcnA SD RNA]
- Kd [1]: ~10 nM

Binder: GGGCUUCACGGAUGAAGCCC (ssRNA, T7 transcript (5' triphosphate expected))
- Kd [2]: 218 ± 12.8 nM
- Kd [3]: 8.67 ± 2.02 nM

Binder: GGAUCAAGGACGAUCC (structured_RNA) [4bpSL2 RNA]
- binding result [4]: binds

Binder: GGGCCAUCAAGGACGAUGGUCC (structured_RNA) [SL2 RNA (RsmZ)]
- Kd [5]: 1.4 nM

B1: hcnA SD (ssRNA)
RNA 1: GGGCUUCACGGAUGAAGCCC
RNA 2: GGGCCAUCAAGGACGAUGGUCC
modifications: T7 transcript (5' triphosphate expected)
- Kd ([6]; two separate hairpins, one per site): 297 ± 11.4 nM

Binder: GGAUCAAGGACGAUCC (ssRNA, T7 transcript (5' triphosphate expected)) [4bpSL2]
- Kd [7]: 97.2 ± 3.58 nM
- Kd [3]: 21.6 ± 2.56 nM

Binder: GGGCCAUCAAGGACGAUGGUCC (ssRNA, T7 transcript (5' triphosphate expected)) [SL2]
- Kd [8]: 5.71 ± 1.35 nM
- Kd [9]: < 0.943 nM
- Kd [10]: 118 ± 4.14 nM
- Kd [11]: 22.3 ± 2.06 nM
- Kd ([6]; hairpin, 2 copies of the RNA per protein dimer, value for the second): 31.1 ± 2.78 nM
- Kd [3]: < 1.45 nM
- Kd [12]: 64.2 ± 3.23 nM
- Kd [13]: 15.4 ± 1.51 nM
